Data as given in US20240391954A1, “MC4R AGONIST PEPTIDES” (The Regents of the University of Michigan, priority 2021, published 2024).
Starred links: 1 amine or outer side, 2 acyl side, 3 side chain; linkers in the order of their positions; H or OH if unused. Positions of bridges follow the written chain, without caps; N, C: chain ends. Non-standard residues stand in square brackets, D forms with d. Primed or numbered codes have the meaning given here. dTyr(4-OMe) = O-methyl-D-tyrosine (4-OMe), COc1ccc(C[C@@H](N[*:1])C(=O)[*:2])cc1; dTyr(4-OMe)″ = O-methyl-D-tyrosine, COc1ccc(C[C@@H](N[*:1])C(=O)[*:2])cc1; dDip = N[C@@H](C(=O)O)C(c1ccccc1)c1ccccc1; dPhe(4-Br) = N[C@H](Cc1ccc(Br)cc1)C(=O)O; d2Nal = N[C@H](Cc1ccc2ccccc2c1)C(=O)O; d(αMeF) = C[C@@](N)(Cc1ccccc1)C(=O)O; dNMeF = CN[C@H](Cc1ccccc1)C(=O)O; Tic = O=C(O)[C@@H]1Cc2ccccc2CN1; dTic = O=C(O)[C@H]1Cc2ccccc2CN1; Cit = NC(=O)NCCC[C@H](N)C(=O)O; Nle = CCCC[C@H](N)C(=O)O; Aib = CC(C)(N)C(=O)O

B1: CTX-1274 (peptide)
peptide: Ac-RC[dA]R[dW]RWC-NH2
modifications: disulfide 2-8
SMILES: CC(=O)N[C@@H](CCCNC(=N)N)C(=O)N[C@H]1CSSC[C@@H](C(N)=O)NC(=O)[C@H](Cc2c[nH]c3ccccc23)NC(=O)[C@H](CCCNC(=N)N)NC(=O)[C@@H](Cc2c[nH]c3ccccc23)NC(=O)[C@H](CCCNC(=N)N)NC(=O)[C@@H](C)NC1=O
B2: CTX-1256 (peptide)
peptide: Ac-RC[dA]R[dPhe(4-Br)]R[dTic]C-NH2
modifications: disulfide 2-8
B3: CTX-1254 (peptide)
peptide: Ac-RC[dA]R[dPhe(4-Br)]R[d2Nal]C-NH2
modifications: disulfide 2-8
SMILES: CC(=O)N[C@@H](CCCNC(=N)N)C(=O)N[C@H]1CSSC[C@@H](C(N)=O)NC(=O)[C@@H](Cc2ccc3ccccc3c2)NC(=O)[C@H](CCCNC(=N)N)NC(=O)[C@@H](Cc2ccc(Br)cc2)NC(=O)[C@H](CCCNC(=N)N)NC(=O)[C@@H](C)NC1=O
B4: CTX-1253 (peptide)
peptide: Ac-RC[dA]R[dPhe(4-Br)][Cit][dW]C-NH2
modifications: disulfide 2-8
SMILES: CC(=O)N[C@@H](CCCNC(=N)N)C(=O)N[C@H]1CSSC[C@@H](C(N)=O)NC(=O)[C@@H](Cc2c[nH]c3ccccc23)NC(=O)[C@H](CCCNC(N)=O)NC(=O)[C@@H](Cc2ccc(Br)cc2)NC(=O)[C@H](CCCNC(=N)N)NC(=O)[C@@H](C)NC1=O
B5: CTX-1273 (peptide)
peptide: Ac-RC[dA]R[dTic]R[dW]C-NH2
modifications: disulfide 2-8
B6: CTX-1279 (peptide)
peptide: Ac-RC[dA]R[d(αMeF)]R[dW]C-NH2
modifications: disulfide 2-8
SMILES: CC(=O)N[C@@H](CCCNC(=N)N)C(=O)N[C@H]1CSSC[C@@H](C(N)=O)NC(=O)[C@@H](Cc2c[nH]c3ccccc23)NC(=O)[C@H](CCCNC(=N)N)NC(=O)[C@@](C)(Cc2ccccc2)NC(=O)[C@H](CCCNC(=N)N)NC(=O)[C@@H](C)NC1=O
B7: CTX-1614 (peptide)
peptide: Ac-R[Nle]CR[dTyr(4-OMe)″]RWC-NH2
modifications: disulfide 3-8
SMILES: CCCC[C@H](NC(=O)[C@H](CCCNC(=N)N)NC(C)=O)C(=O)N[C@H]1CSSC[C@@H](C(N)=O)NC(=O)[C@H](Cc2c[nH]c3ccccc23)NC(=O)[C@H](CCCNC(=N)N)NC(=O)[C@@H](Cc2ccc(OC)cc2)NC(=O)[C@H](CCCNC(=N)N)NC1=O
B8: CTX-1641 (peptide)
peptide: Ac-CGR[dTyr(4-OMe)]RFC-NH2
modifications: disulfide 1-7
SMILES: COc1ccc(C[C@H]2NC(=O)[C@H](CCCNC(=N)N)NC(=O)CNC(=O)[C@@H](NC(C)=O)CSSC[C@@H](C(N)=O)NC(=O)[C@H](Cc3ccccc3)NC(=O)[C@H](CCCNC(=N)N)NC2=O)cc1
B9: CTX-1255 (peptide)
peptide: Ac-RC[dA]R[dPhe(4-Br)]R[dF]C-NH2
modifications: disulfide 2-8
SMILES: CC(=O)N[C@@H](CCCNC(=N)N)C(=O)N[C@H]1CSSC[C@@H](C(N)=O)NC(=O)[C@@H](Cc2ccccc2)NC(=O)[C@H](CCCNC(=N)N)NC(=O)[C@@H](Cc2ccc(Br)cc2)NC(=O)[C@H](CCCNC(=N)N)NC(=O)[C@@H](C)NC1=O
B10: CTX-1600 (peptide)
peptide: Ac-RC[Aib][Cit][dTyr(4-OMe)″]R[dW]C-NH2
modifications: disulfide 2-8
B11: CTX-1283 (peptide)
peptide: Ac-RC[dA]R[dF][dR][dW]C-NH2
modifications: disulfide 2-8
SMILES: CC(=O)N[C@@H](CCCNC(=N)N)C(=O)N[C@H]1CSSC[C@@H](C(N)=O)NC(=O)[C@@H](Cc2c[nH]c3ccccc23)NC(=O)[C@@H](CCCNC(=N)N)NC(=O)[C@@H](Cc2ccccc2)NC(=O)[C@H](CCCNC(=N)N)NC(=O)[C@@H](C)NC1=O
B12: CTX-1280 (peptide)
peptide: Ac-RC[dA]R[dDip]R[dW]C-NH2
modifications: disulfide 2-8
B13: CTX-1272 (peptide)
peptide: Ac-RC[dA]R[dNMeF]R[dW]C-NH2
modifications: disulfide 2-8
SMILES: CC(=O)N[C@@H](CCCNC(=N)N)C(=O)N[C@H]1CSSC[C@@H](C(N)=O)NC(=O)[C@@H](Cc2c[nH]c3ccccc23)NC(=O)[C@H](CCCNC(=N)N)NC(=O)[C@@H](Cc2ccccc2)N(C)C(=O)[C@H](CCCNC(=N)N)NC(=O)[C@@H](C)NC1=O
B14: CTX-1271 (peptide)
peptide: Ac-RC[Aib]R[dF][Cit][dW]C-NH2
modifications: disulfide 2-8
B15: CTX-1640 (peptide)
peptide: Ac-CGR[dPhe(4-Br)]RFC-NH2
modifications: disulfide 1-7
B16: CTX-1259 (peptide)
peptide: Ac-RC[dA]R[dPhe(4-Br)]R[Tic]C-NH2
modifications: disulfide 2-8
B17: CTX-1260 (peptide)
peptide: Ac-RC[dA]R[dPhe(4-Br)]R[dA]C-NH2
modifications: disulfide 2-8
SMILES: CC(=O)N[C@@H](CCCNC(=N)N)C(=O)N[C@H]1CSSC[C@@H](C(N)=O)NC(=O)[C@@H](C)NC(=O)[C@H](CCCNC(=N)N)NC(=O)[C@@H](Cc2ccc(Br)cc2)NC(=O)[C@H](CCCNC(=N)N)NC(=O)[C@@H](C)NC1=O
B18: CTX-1282 (peptide)
peptide: Ac-RC[dA]R[dF][dR]WC-NH2
modifications: disulfide 2-8
SMILES: CC(=O)N[C@@H](CCCNC(=N)N)C(=O)N[C@H]1CSSC[C@@H](C(N)=O)NC(=O)[C@H](Cc2c[nH]c3ccccc23)NC(=O)[C@@H](CCCNC(=N)N)NC(=O)[C@@H](Cc2ccccc2)NC(=O)[C@H](CCCNC(=N)N)NC(=O)[C@@H](C)NC1=O
B19: CTX-1615 (peptide)
peptide: Ac-R[Nle]CR[dTyr(4-OMe)″]R[dW]C-NH2
modifications: disulfide 3-8
SMILES: CCCC[C@H](NC(=O)[C@H](CCCNC(=N)N)NC(C)=O)C(=O)N[C@H]1CSSC[C@@H](C(N)=O)NC(=O)[C@@H](Cc2c[nH]c3ccccc23)NC(=O)[C@H](CCCNC(=N)N)NC(=O)[C@@H](Cc2ccc(OC)cc2)NC(=O)[C@H](CCCNC(=N)N)NC1=O
B20: CTX-1252 (peptide)
peptide: Ac-RC[dA]R[dPhe(4-Br)][dR][dW]C-NH2
modifications: disulfide 2-8

Legend:
Test in all cases: cell-based or functional assay
[1] = target: human MC3R (human, UniProt P41968 1-323)
Chain of human MC3R (P41968 whole entry): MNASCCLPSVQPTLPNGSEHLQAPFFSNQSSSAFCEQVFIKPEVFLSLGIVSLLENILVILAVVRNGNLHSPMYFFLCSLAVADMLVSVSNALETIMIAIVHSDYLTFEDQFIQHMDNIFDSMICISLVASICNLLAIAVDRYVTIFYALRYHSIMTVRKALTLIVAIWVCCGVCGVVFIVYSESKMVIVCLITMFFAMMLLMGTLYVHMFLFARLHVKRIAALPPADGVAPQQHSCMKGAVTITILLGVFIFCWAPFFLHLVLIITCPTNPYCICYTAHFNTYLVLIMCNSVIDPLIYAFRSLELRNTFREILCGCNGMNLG

[2] = target: T1, human MC4R receptor (human, UniProt P32245 1-332)
T1 sequence (P32245 whole entry): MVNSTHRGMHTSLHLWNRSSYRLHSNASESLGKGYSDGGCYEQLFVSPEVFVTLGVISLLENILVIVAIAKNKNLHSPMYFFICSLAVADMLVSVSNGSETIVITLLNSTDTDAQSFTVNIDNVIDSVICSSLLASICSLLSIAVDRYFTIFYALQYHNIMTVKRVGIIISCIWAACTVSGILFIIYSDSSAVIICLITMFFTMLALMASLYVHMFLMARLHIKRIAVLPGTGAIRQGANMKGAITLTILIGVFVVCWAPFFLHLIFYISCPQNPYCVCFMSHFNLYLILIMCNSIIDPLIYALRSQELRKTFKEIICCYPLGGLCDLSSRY

[3] = target: T1, human MC4R receptor; remark: listed apart in the source

| % max activation [1] [%] | cAMP EC50 [1] [nM] | % max activation [2] [%] | cAMP EC50 [2] [nM] | MC4R selectivity vs MC1R [3] | MC4R selectivity vs MC3R [3] | Binder |
| --- | --- | --- | --- | --- | --- | --- |
| 5.4 | 164 | 77 | 1400 | 0.19 | 0.12 | B1 |
| 17 | 592 | 29 | 7240 | 0.003 | 0.08 | B2 |
| 5.5 | 9.2 | 22 | 4.2 | 0.26 | 2.19 | B3 |
| 9.2 | 4 | 58 | 7.6 | 0.57 | 0.53 | B4 |
| 3.7 | 4780 | 32 | 7430 | 0.05 | 0.64 | B5 |
| 20 | 43 | 79 | 72 | 0.83 | 0.61 | B6 |
| 28 | 3.2 | 41 | 1.7 | 0.08 | 1.89 | B7 |
| 22 | 52 | 104 | 44 | 0.28 | 1.18 | B8 |
| 28 | 7.5 | 60 | 31 | 0.05 | 0.24 | B9 |
| – | > 10000 | 58 | 142 | > 70 | > 70 | B10 |
| 7.8 | 719 | 55 | 5860 | 0.03 | 0.12 | B11 |
| 2.6 | 541 | 4 | 438 | 0.1 | 1.24 | B12 |
| 0.9 | 671 | 5.3 | 750 | 0.21 | 0.9 | B13 |
| 16 | 117 | 95 | 72 | 2.9 | 1.63 | B14 |
| 27 | 10 | 100 | 3.4 | 3.72 | 3.09 | B15 |
| 27 | 146 | 70 | 1250 | 0.01 | 0.12 | B16 |
| 13 | 239 | 38 | 4930 | 0.01 | 0.05 | B17 |
| 4.2 | 545 | 72 | 1420 | 0.14 | 0.38 | B18 |
| 55 | 27 | 68 | 13 | 0.26 | 2.14 | B19 |
| 1.1 | 57 | 4.4 | 885 | 0.04 | 0.06 | B20 |
